Data: patent US20170368208A1, “CANCER IMAGING AGENT” (ENDOCYTE, INC., priority 2015, published 2017)
*1 amine or outer side, *2 acyl side, *3 side chain or, on linkers, in order; H or OH if unused. Where a SMILES comes first, the peptide text is derived from it. Side-chain parts run from the residue outwards. [ ]: non-standard residue; d: D form. ξ: configuration not given here. γGlu = O=C(O)[C@H](CCC(=O)[*:2])N[*:1]; ξE = NC(CCC(=O)O)C(=O)O; Dap = NC[C@H](N)C(=O)O; Aoc = NCCCCCCCC(=O)O; CO = O=C([*:1])[*:2]

Experiment: Radiochemical purity and stability of 99mTc-Compound II after room temperature labelling of kit formulations (radio-HPLC)
Type: physicochemical
Conditions: 0.1 mg tin chloride
Procedure: A Compound II kit vial from Example 2 was removed from the refrigerator and allowed to warm to room temperature (17-27° C.) for 15-30 min. The vial was put into a suitable radioactive shielding container. One to Two milliliter (≦50 mCi) of ^99mTc pertechnetate injection was added to the vial using a lead shielded syringe. Before removing the syringe from the vial, equal volume of headspace was withdrawn in order to normalize the pressure inside the vial. The vial was gently swirled to completely dissolve the powder and then allowed to stand at ambient temperature (17-27° C.) for 15 minutes. 5-6 mL of 0.9% sodium chloride injection, USP, was then added to the vial. The labeled solution was stored at room temperature (17-27° C.) and used within 6 hours of preparation. The Radio-HPLC system used for the following experiment consisted of a Waters 600 intelligent pump, a Bioscan Flow-Count radiodetector, and a Waters Nova-Pak C18 (3.9×150 mm) column, using Laura v1.5 radiochromatogram software. 1-5 μL of the ^99mTc-Compound II sample was injected into the HPLC and eluted with an aqueous mobile phase 0.1% trifluoroacetic acid in water (A) and Acetonitrile (B) at a linear gradient of 25% B to 35% B over 20 minutes at a flow rate of 1 mL/min. […] The radiochemical purity of ^99mTc-Compound II was calculated as follows: Radiochemical purity=isomer A %+isomer B % (FIG. 1) Using the methods described herein, Compound II was subjected to room temperature labelling at varying pH. Using the methods described herein, Compound II was subjected to room temperature labelling with varying amounts of EDTA. Using the methods described herein, Compound II was subjected to room temperature labelling with varying amounts of sodium gluconate.

N[C@@H](CNC(=O)[C@H](Cc1ccccc1)NC(=O)[C@H](Cc1ccccc1)NC(=O)CCCCCCCNC(=O)CC[C@H](NC(=O)NC(CCC(=O)O)C(=O)O)C(=O)O)C(=O)N[C@@H](CC(=O)O)C(=O)N[C@@H](CS)C(=O)O (stereo partly drawn) [EC0652] (H-[Dap]([Phe-Phe-Aoc-γGlu-CO-ξE])-Asp-Cys-OH)
RCP (%) Time (6 Hr) (kit 0.1 mg EC0652, 1 mg sodium gluconate, 0.3 mg EDTA, pH 6.8, 6 Hr): 91.7%
RCP (%) Time (6 Hr) (kit 0.1 mg EC0652, 20 mg sodium gluconate, 0.3 mg EDTA, pH 6.8, 6 Hr): 97.9%
RCP (%) Time (0 Hr) (kit 0.1 mg EC0652, 25 mg sodium gluconate, 0 mg EDTA, pH 6.8, 0 Hr): 85.37%
RCP (%) Time (6 Hr) (kit 0.1 mg EC0652, 25 mg sodium gluconate, 0 mg EDTA, pH 6.8, 6 Hr): 88.06%
RCP (%) Time (0 Hr) (kit 0.1 mg EC0652, 25 mg sodium gluconate, 0.005 mg EDTA, pH 6.8, 0 Hr): 83.69%
RCP (%) Time (6 Hr) (kit 0.1 mg EC0652, 25 mg sodium gluconate, 0.005 mg EDTA, pH 6.8, 6 Hr): 74.46%
RCP (%) Time (0 Hr) (kit 0.1 mg EC0652, 25 mg sodium gluconate, 0.01 mg EDTA, pH 6.8, 0 Hr): 85.92%
RCP (%) Time (6 Hr) (kit 0.1 mg EC0652, 25 mg sodium gluconate, 0.01 mg EDTA, pH 6.8, 6 Hr): 94.03%
RCP (%) Time (0 Hr) (kit 0.1 mg EC0652, 25 mg sodium gluconate, 0.1 mg EDTA, pH 6.8, 0 Hr): 95.77%
RCP (%) Time (6 Hr) (kit 0.1 mg EC0652, 25 mg sodium gluconate, 0.1 mg EDTA, pH 6.8, 6 Hr): 95.33%
RCP (%) Time (0 Hr) (kit 0.1 mg EC0652, 25 mg sodium gluconate, 0.30 mg EDTA, pH 6.8, 0 Hr (Table 5)): 97.02%
RCP (%) Time (6 Hr) (kit 0.1 mg EC0652, 25 mg sodium gluconate, 0.30 mg EDTA, pH 6.8, 6 Hr (Table 5)): 97.49%
RCP (%) Time (6 Hr) (kit 0.1 mg EC0652, 25 mg sodium gluconate, 0.3 mg EDTA, pH 6.8, 6 Hr (Table 6)): 98.5%
Radiochemical Purity (%) Time (0 Hr) (kit 0.1 mg EC0652, 25 mg sodium gluconate, 0.3 mg EDTA, pH 5.1, 0 Hr after room temperature 99mTc labelling): 97.7%
Radiochemical Purity (%) Time (6 Hr) (kit 0.1 mg EC0652, 25 mg sodium gluconate, 0.3 mg EDTA, pH 5.1, 6 Hr after room temperature 99mTc labelling): 85.5%
Radiochemical Purity (%) Time (0 Hr) (kit 0.1 mg EC0652, 25 mg sodium gluconate, 0.3 mg EDTA, pH 6.2, 0 Hr): 96.8%
Radiochemical Purity (%) Time (6 Hr) (kit 0.1 mg EC0652, 25 mg sodium gluconate, 0.3 mg EDTA, pH 6.2, 6 Hr): 94.1%
Radiochemical Purity (%) Time (0 Hr) (kit 0.1 mg EC0652, 25 mg sodium gluconate, 0.3 mg EDTA, pH 6.8, 0 Hr (Table 3)): 97.4%
Radiochemical Purity (%) Time (6 Hr) (kit 0.1 mg EC0652, 25 mg sodium gluconate, 0.3 mg EDTA, pH 6.8, 6 Hr (Table 3)): 94.8%
Radiochemical Purity (%) Time (0 Hr) (kit 0.1 mg EC0652, 25 mg sodium gluconate, 0.3 mg EDTA, pH 7.4, 0 Hr): 96.5%
Radiochemical Purity (%) Time (6 Hr) (kit 0.1 mg EC0652, 25 mg sodium gluconate, 0.3 mg EDTA, pH 7.4, 6 Hr): 96.0%
RCP (%) Time (0 Hr) (kit 0.1 mg EC0652, 25 mg sodium gluconate, 1.0 mg EDTA, pH 6.8, 0 Hr): 96.69%
RCP (%) Time (6 Hr) (kit 0.1 mg EC0652, 25 mg sodium gluconate, 1.0 mg EDTA, pH 6.8, 6 Hr): 96.87%
RCP (%) Time (6 Hr) (kit 0.1 mg EC0652, 30 mg sodium gluconate, 0.3 mg EDTA, pH 6.8, 6 Hr): 97.0%
RCP (%) Time (6 Hr) (kit 0.1 mg EC0652, 50 mg sodium gluconate, 0.3 mg EDTA, pH 6.8, 6 Hr): 98.0%
